Earlier results, collected in paper PMC4520744.

Molecular target: HBV capsid protein (Hepatitis B virus) (UniProt P03149)

For “HBV capsid protein (from UniProt P03149)”, the Kd is given as 3000 µM.
